Values of other authors in PMC13051815.

Assays:
[1] = biological target: Bim BH3 peptide 86-111 (Homo sapiens) (UniProt O43521); assay: ITC
[2] = biological target: Bim BH3 peptide 86-111 (Homo sapiens) (UniProt O43521); assay: fluorescence polarization

Sequence of UniProt O43521 (O43521 86-111): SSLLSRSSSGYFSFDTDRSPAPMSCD

- Kd [1]: 400 nM
- Kd [2]: > 30 µM
Substance: Hsp70 NBD (from UniProt P0DMV8)
